Blank lines part the entries; values can stand above or below the binder they belong to.
Legend:
[1] = target: T1, recombinant human tPA (rh-tPA: abcam ab92637) (UniProt P00750 36-562); test: ELISA; Plate 2, cynomolgus serum, 37°C
[2] = target: T1, recombinant human tPA (rh-tPA: abcam …); test: ELISA; Plate 1, PBS, 4°C
[3] = target: T1, recombinant human tPA (rh-tPA: abcam …); test: ELISA
[4] = target: T1, recombinant human tPA (rh-tPA: abcam …); test: ELISA; remark: listed apart in the source
[5] = target: T1, recombinant human tPA (rh-tPA: abcam …); test: ELISA; Plate 2, PBS, 4°C
[6] = target: T1, recombinant human tPA (rh-tPA: abcam …); test: ELISA; Plate 2, mouse serum, 37°C
[7] = target: T1, recombinant human tPA (rh-tPA: abcam …); test: ELISA; Plate 1, human serum, 37°C
[8] = target: T1, recombinant human tPA (rh-tPA: abcam …); test: ELISA; Plate 2, mouse serum, 37°C; remark: listed apart in the source
[9] = target: T1, recombinant human tPA (rh-tPA: abcam …); test: ELISA; Plate 2, PBS, 4°C; remark: listed apart in the source
[10] = target: T1, recombinant human tPA (rh-tPA: abcam …); test: ELISA; Plate 2, cynomolgus serum, 37°C; remark: listed apart in the source
[11] = target: T1, recombinant human tPA (rh-tPA: abcam …); test: ELISA; Plate 1, PBS, 37°C
[12] = target: T1, recombinant human tPA (rh-tPA: abcam …); test: ELISA; Plate 1, PBS, 4°C; remark: listed apart in the source
[13] = target: T1, recombinant human tPA (rh-tPA: abcam …); test: ELISA; Plate 1, human serum, 37°C; remark: listed apart in the source
[14] = target: T1, recombinant human tPA (rh-tPA: abcam …); test: ELISA; Plate 2, PBS, 4°C; remark: listed apart in the source
[15] = target: T1, recombinant human tPA (rh-tPA: abcam …); test: ELISA; Plate 1, human serum, 37°C; remark: listed apart in the source
[16] = target: T1, recombinant human tPA (rh-tPA: abcam …); test: ELISA; Plate 1, PBS, 37°C; remark: listed apart in the source
[17] = target: T1, recombinant human tPA (rh-tPA: abcam …); test: ELISA; Plate 2, mouse serum, 37°C; remark: listed apart in the source
[18] = target: T1, recombinant human tPA (rh-tPA: abcam …); test: ELISA; Plate 1, PBS, 4°C; remark: listed apart in the source
[19] = target: T1, recombinant human tPA (rh-tPA: abcam …); test: ELISA; purified Fab

T1 sequence (P00750 36-562): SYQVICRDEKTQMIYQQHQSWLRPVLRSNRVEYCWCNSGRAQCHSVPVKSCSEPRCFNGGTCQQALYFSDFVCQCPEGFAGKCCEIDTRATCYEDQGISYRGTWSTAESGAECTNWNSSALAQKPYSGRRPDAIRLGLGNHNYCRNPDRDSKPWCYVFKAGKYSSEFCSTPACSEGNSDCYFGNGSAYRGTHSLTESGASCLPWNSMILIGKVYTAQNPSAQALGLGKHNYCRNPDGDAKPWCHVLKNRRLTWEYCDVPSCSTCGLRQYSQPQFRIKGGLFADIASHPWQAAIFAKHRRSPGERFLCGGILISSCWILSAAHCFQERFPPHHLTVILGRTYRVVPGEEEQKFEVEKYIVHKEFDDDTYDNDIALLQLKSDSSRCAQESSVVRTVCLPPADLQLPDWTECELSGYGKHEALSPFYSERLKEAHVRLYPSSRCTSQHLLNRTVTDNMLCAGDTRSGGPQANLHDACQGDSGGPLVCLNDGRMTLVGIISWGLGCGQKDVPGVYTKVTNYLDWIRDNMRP

EC50 [1]: 514 pM | EC50 [2]: 229 pM | IC50 [3]: 365 pM | IC50 [4]: 316 pM | EC50 [5]: 304 pM | EC50 [6]: 403 pM | EC50 [7]: 404 pM
B1: TPAi-1 RHP/RKA (antibody, V domains shown)
VH: QVQLVQSGAEVKKPGASVKVSCKASGNTSYWINWVRQATGQGLEWMGRIDPGGGSTGYAQKFQGRVTMTRDTSISTAYMELSSLRSEDTAVYYCASYYYAMAYWGQGTLVTVSS
VL: DVVMTQSPLSLPVTPGEPASISCRSSQSIVHSNGNTYLDWYLQKPGQSPQLLIYKVSNRASGVPDRFSGSGSGTDFTLKISRVEAEDVGVYYCFQGSHVPWTFGGGTKVEIK

EC50 [8]: 694 pM | EC50 [9]: 510 pM | EC50 [10]: 717 pM | EC50 [11]: 972 pM | EC50 [12]: 596 pM | EC50 [13]: 647 pM
B2: TPAi-1 RHE/RKA (antibody, V domains shown)
VH: QVQLVQSGAEVKKPGASVKVSCKASGNTSYWINWVRQATGQGLEWMGRIDPGGGSTGYAQKFQGRVTMTRNTSISTAYMELSSLRSEDTAVYYCASYYYAMAYWGQGTLVTVSS
VL: DVVMTQSPLSLPVTPGEPASISCRSSQSIVHSNGNTYLDWYLQKPGQSPQLLIYKVSNRASGVPDRFSGSGSGTDFTLKISRVEAEDVGVYYCFQGSHVPWTFGGGTKVEIK

EC50 [14]: 1750 pM | EC50 [15]: 978 pM | EC50 [16]: 2160 pM | EC50 [17]: 966 pM | EC50 [18]: 1450 pM | IC50 [19]: 1620 pM
B3: TPAi-1 RHP/RKA Fab (Fab, V domains shown)
VH: QVQLVQSGAEVKKPGASVKVSCKASGNTSYWINWVRQATGQGLEWMGRIDPGGGSTGYAQKFQGRVTMTRDTSISTAYMELSSLRSEDTAVYYCASYYYAMAYWGQGTLVTVSS
VL: DVVMTQSPLSLPVTPGEPASISCRSSQSIVHSNGNTYLDWYLQKPGQSPQLLIYKVSNRASGVPDRFSGSGSGTDFTLKISRVEAEDVGVYYCFQGSHVPWTFGGGTKVEIK
